Results published in article PMC13086964, “USP7 deubiquitinase stabilizes FAN1 to support DNA crosslink repair and suppress CAG repeat expansion” (Nature Communications, 2026).

What follows are substances tested against USP7 TRAF domain (residues 2-207), biotinylated (UniProt Q93009) (assay: fluorescence polarisation). Conditions: read at the highest USP7-TRAF concentration, about 190 µM; parent: est. 100; read off a plot.
USP7 TRAF domain (residues 2-207), biotinylated, sequence (Q93009 2-207): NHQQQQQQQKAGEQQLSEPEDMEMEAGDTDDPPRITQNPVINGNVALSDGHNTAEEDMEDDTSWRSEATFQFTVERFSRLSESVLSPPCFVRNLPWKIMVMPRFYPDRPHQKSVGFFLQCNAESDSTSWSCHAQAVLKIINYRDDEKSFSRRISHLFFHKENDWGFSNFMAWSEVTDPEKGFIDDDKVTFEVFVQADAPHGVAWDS

**Q.** Which response (% (normalized FP)) does the source give for “FITC-labelled FAN1-derived 8mer peptide, wild-type (181-PQSS-184 region) Q182A” here?
**A.** Its response (% (normalized FP)) is 99.

**Q.** Which response (% (normalized FP)) does the source give for “FITC-labelled FAN1-derived 8mer peptide, wild-type (181-PQSS-184 region) S184A” here?
**A.** Its response (% (normalized FP)) is 30.

**Q.** How did the response (% (normalized FP)) turn out when “FITC-labelled FAN1-derived 8mer peptide, wild-type (181-PQSS-184 region) P181A” was run?
**A.** Its response (% (normalized FP)) is 100.
